The target in the assay is T1, Alexa 647 labeled PHD2 (catalytic / prolyl-hydroxylase domain, residues 181-426) (human, UniProt Q9GZT9 181-426, Alexa Fluor 647 N-hydroxysuccinimide ester dye, 1-2 dye molecules per protein molecule).
T1 construct: PHD2, prolyl-hydroxylase domain (catalytic domain), residues 181-426, from pET-46-HIS6-PHD2; Same construct as m2, dye-labeled for MST; also called PHD2-647; source: E. coli BL21(DE3), purified (Ni-NTA, thrombin cleavage, Superdex 75), labeled with Alexa Fluor 647 NHS ester
The experiment in a line: MST; 25 nM Alexa 647 labeled PHD2, unlabeled peptide in 16 two-fold dilutions; room temperature; MST Buffer 50 mM Tris-HCl pH 7.5, 1 mM NOG, 10 µM FeSO4, 5 mg/ml BSA mixed 1:1 with peptide in 50 mM Tris-HCl pH 8.0; 1:1 Kd model; triplicate. The conditions noted are these: both partners purified.

The term Kd denotes the free concentration of one partner at which half of the binding sites on the other are occupied at equilibrium, for simple one-to-one binding.

T1 sequence (Q9GZT9 181-426): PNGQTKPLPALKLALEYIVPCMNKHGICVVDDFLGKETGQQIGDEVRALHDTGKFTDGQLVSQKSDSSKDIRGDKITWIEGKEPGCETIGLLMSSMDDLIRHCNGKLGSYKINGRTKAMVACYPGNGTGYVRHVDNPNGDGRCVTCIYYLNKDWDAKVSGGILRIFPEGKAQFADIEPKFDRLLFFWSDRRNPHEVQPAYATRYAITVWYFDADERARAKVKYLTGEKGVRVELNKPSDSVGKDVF

B1: HIF2α-CODD D539N peptide (peptide, UniProt Q99814 523-542, looked up)
peptide: Ac-ELDLETLAPYIPMDGENFQL-NH2
notes: HIF2α (EPAS1) CODD peptide, human, as m3 with the disease mutation D539N (Class 1); also called HIF2α D539N; source: synthetic peptide (Genscript, ≥95% purity)
As for B1, the dissociation constant Kd came to 760 ± 274 µM.

B2: HIF2α-CODD P534L peptide (peptide, UniProt Q99814 523-542, looked up)
peptide: Ac-ELDLETLAPYILMDGEDFQL-NH2
notes: HIF2α (EPAS1) CODD peptide, human, as m3 with the disease mutation P534L (Class 2); also called HIF2α P534L; source: synthetic peptide (Genscript, ≥95% purity)
In turn, B2 gave a dissociation constant (Kd) of 221 ± 19 µM.

B3: HIF2α-CODD I533V peptide (peptide, UniProt Q99814 523-542, looked up)
peptide: Ac-ELDLETLAPYVPMDGEDFQL-NH2
notes: HIF2α (EPAS1) CODD peptide, human, as m3 with the disease mutation I533V (Class 2); also called HIF2α I533V; source: synthetic peptide (Genscript, ≥95% purity)
For B3, the affinity, expressed as Kd, was 167 ± 29 µM.

B4: HIF2α-CODD M535T peptide (peptide, UniProt Q99814 523-542, looked up)
peptide: Ac-ELDLETLAPYIPTDGEDFQL-NH2
notes: HIF2α (EPAS1) CODD peptide, human, as m3 with the disease mutation M535T (Class 2); also called HIF2α M535T; source: synthetic peptide (Genscript, ≥95% purity)
B4 registered a dissociation constant (Kd) of 203 ± 25 µM.

B5: HIF2α-CODD G537W peptide (peptide, UniProt Q99814 523-542, looked up)
peptide: Ac-ELDLETLAPYIPMDWEDFQL-NH2
notes: HIF2α (EPAS1) CODD peptide, human, as m3 with the disease mutation G537W (Class 2); also called HIF2α G537W; source: synthetic peptide (Genscript, ≥95% purity)
For B5, binding was put at a Kd of 83 ± 9 µM.

B6: HIF2α-CODD Y532C peptide (peptide, UniProt Q99814 523-542, looked up)
peptide: Ac-ELDLETLAPCIPMDGEDFQL-NH2
notes: HIF2α (EPAS1) CODD peptide, human, as m3 with the disease mutation Y532C; also called HIF2α Y532C; source: synthetic peptide (Genscript, ≥95% purity)
With B6, the Kd is 345 ± 247 µM.

B7: HIF2α-CODD F540L peptide (peptide, UniProt Q99814 523-542, looked up)
peptide: Ac-ELDLETLAPYIPMDGEDLQL-NH2
notes: HIF2α (EPAS1) CODD peptide, human, as m3 with the disease mutation F540L (Class 2); also called HIF2α F540L; source: synthetic peptide (Genscript, ≥95% purity)
B7: the affinity, expressed as Kd, was 229 ± 25 µM.

B8: HIF2α-CODD M535I peptide (peptide, UniProt Q99814 523-542, looked up)
peptide: Ac-ELDLETLAPYIPIDGEDFQL-NH2
notes: HIF2α (EPAS1) CODD peptide, human, as m3 with the disease mutation M535I (Class 2); also called HIF2α M535I; source: synthetic peptide (Genscript, ≥95% purity)
In turn, B8 returned a Kd of 154 ± 17 µM. The Kd values of the last two molecules are within 1.5-fold of each other.

B9: HIF2α-CODD T528M peptide (peptide, UniProt Q99814 523-542, looked up)
peptide: Ac-ELDLEMLAPYIPMDGEDFQL-NH2
notes: HIF2α (EPAS1) CODD peptide, human, as m3 with T528M; also called HIF2α T528M; source: synthetic peptide (Genscript, ≥95% purity)
B9: the dissociation constant Kd was 23 ± 2 µM.

B10: HIF2α-CODD D539Y peptide (peptide, UniProt Q99814 523-542, looked up)
peptide: Ac-ELDLETLAPYIPMDGEYFQL-NH2
notes: HIF2α (EPAS1) CODD peptide, human, as m3 with the disease mutation D539Y (Class 1); also called HIF2α D539Y; source: synthetic peptide (Genscript, ≥95% purity)
B10 returned a Kd of 381 ± 50 µM.

B11: HIF2α-CODD P534R peptide (peptide, UniProt Q99814 523-542, looked up)
peptide: Ac-ELDLETLAPYIRMDGEDFQL-NH2
notes: HIF2α (EPAS1) CODD peptide, human, as m3 with the disease mutation P534R (Class 2); also called HIF2α P534R; source: synthetic peptide (Genscript, ≥95% purity)
On to B11, for which the Kd came out at 153 ± 10 µM. This Kd lies about 2.5-fold lower than the previous one.

These data come from paper PMC10902354, “Deficiency in PHD2-mediated hydroxylation of HIF2α underlies Pacak-Zhuang syndrome” (Communications Biology, 2024).
